What all share (type): biochemical
In data set [1] the target is HHDH (Agrobacterium tumefaciens, UniProt Q93D82). In words: Inhibition of HHDH by ECAA. The conditions noted are these: inhibitor of HHDH.
Data set [2] in a line: Example 5A gas chromatography assay of HHDH activity (conversion of ECHB to ethyl (R)-4-cyano-3-hydroxybutyrate). Conditions: ECHB substrate; Activity of Improved HHDH Enzyme/Activity of Agrobacterium sp. HHDH (SEQ ID NO: 2). How it is done: To a solution of ethyl (S)-4-chloro-3-hydroxybutyrate (10 mM-100 mM) in 500 mM HCN (500 mM NaCN adjusted to pH 7.0 with phosphoric acid) was added the halohydrin dehalogenase enzyme as a predissolved solution in the same buffer. Over time, aliquots of the mixture were withdrawn and extracted with three volumes of ethyl acetate. The organic layer was then analysed for ethyl (R)-4-cyano-3-hydroxybutyrate by gas chromatography (GC), as described hereinbelow in Example 6. Samples were taken at various time points, and the peak area of the product cyanohydrin, ethyl (R)-4-cyano-3-hydroxybutyrate, was plotted as a function of time. Time points are selected at low conversion, for example, less than 5% conversion, to avoid the effect of product inhibition (e.g., 0.5%, 1.0%, 1.5%, 2.0%, 2.5%, 3.0%, etc.). The peak areas were converted to concentration units using a standard curve that was prepared for the ethyl (R)-4-cyano-3-hydroxybutyrate. Activity of the halohydrin dehalogenase was determined in units of μmol (cyanohydrin produced)/min/mg (total halohydrin dehalogenase catalyst). Relative activities of some of the clones are shown in Table 2, computed as Activity of Improved HHDH Enzyme/Activity of Agrobacterium sp. HHDH (SEQ ID NO: 2).
The ethyl (R)-4-cyano-3-hydroxybutyrate produced in Example 5A was analyzed using gas chromatography with flame ionization (FID) detection using an Agilent® HP-5™ column, 30 m long, 0.32 mm inner diameter, film 0.25 μm, using the following program: 1 minute at 100° C., 5° C./minute for 10 minutes; 25° C./minute for 2 minutes; then 2 minutes at 200° C. Inlet and outlet temperatures were both 300° C., and the flow rate was 2 ml/minute. Under these conditions, ethyl (R)-4-cyano-3-hydroxybutyrate elutes at 6.25 minutes and ethyl (S)-4-chloro-3-hydroxybutyrate elutes at 4.5 minutes. Chemical purity of the species was measured using the integrated peak areas from the gas chromatography results.

The nature of data set [3]: Example 7 manufacture of ethyl (R)-4-cyano-3-hydroxybutyrate with HHDH cell lysate. The conditions noted are these: 40° C., pH 7, 17 hours. How it is done: To a 3-necked jacketed 3 L flask equipped with a mechanical stirrer and connected to an automatic titrater by a pH electrode and a feeding tube for addition of base, was charged H2O (1200 mL), NaCN (37.25 g) and NaH2PO4 (125 g) to bring the solution to pH 7. The water circulator was set to 40° C. After 10 minutes, halohydrin dehalogenase of SEQ ID NO: 32 as cell lysate (250 mL) was added. The reaction mixture was allowed to stir for 5 minutes. Using an addition funnel, ethyl (S)-4-chloro-3-hydroxybutyrate (45 g) was slowly added over 1 hour. The pH was maintained at 7 by the automatic titrater by the addition of 10 M NaOH (27 mL) over 17 hours. […] Celite™ (16 g) was added to the flask, which was then connected to a diaphragm pump, whose exhaust is bubbled into 5M NaOH (200 mL), to remove HCN. The mixture was heated to 60° C. under 100 mm Hg pressure. After 1 hour, a submerged air bubbler was added to the solution to aid the removal of the HCN. After 3 hours, an HCN detector indicated less than 5 ppm HCN in the off-gas. The mixture was allowed to cool to room temperature, then filtered through a Celite™ pad. […] Enantiomeric composition can be readily characterized by using the gas chromatography method described in Example 6, above, and using methods that are known in the art.

By Ki is commonly meant a measure of affinity in units of concentration, obtained from inhibition or displacement. Higher therefore signals a looser hold on the target.

For the molecule `CCOC(=O)CC(=O)CCl` [ECAA, Ethyl-4-chloroacetoacetate], in data set [1], the Ki is ~70 µM.

B1: SEQ ID NO: 28: improved HHDH (halohydrin dehalogenase) polypeptide of the Sequence Listing (protein)
chain: MSPAIVTNVKHFGGMGSALRLSEAGHTVACHDESFKQKDELEAFAETYPQLKPMSEQEPAELIEAVTSAYGQVDVLVSNDIFAPEFQPIDKYAVEDYRGAVEALQIRPFALVNAVASQMKKRKSGHIIFITSATPFGPWKELSTYTSARAGACTLANALSKELGEYNIPVFAIGPNYLHSEDSPYFYPTEPWKTNPEHVAHVKKVTALQRLGTQKELGELVAFLASGSCDYLTGQVFWLAGGFPMIERWPGM
Take B1: the “Fold Improvement in HHDH Activity over Aerobacterium sp. HHDH (SEQ ID NO: 2)” value (shortened to “Fold Improvement … (SEQ ID NO: 2)”) in data set [2] amounted to 2.2 Fold.

B2: SEQ ID NO: 32: native halohydrin dehalogenase from Agrobacterium radiobacter AD1 (hheC), expressed from SEQ ID NO. 31 (protein)
chain: MSTAIVTNVKHFGGMGSALRLSEAGHTVACHDESFKQKDELEAFAETYPQLKPMSEQEPAELIEAVTSAYGQVDVLVSNDIFAPEFQPIDKYAVEDYRGAVEALQIRPFALVNAVASQMKKRKSGHIIFITSATPFGPWKELSTYTSARAGACTLANALSKELGEYNIPVFAIGPNYLHSEDSPYFYPTEPWKTNPEHVAHVKKVTALQRLGTQKELGELVAFLASGSCDYLTGQVFWLAGGFPMIERWPGMPE
As to B2, in data set [3], the “conversion to product by gas chromatography” value is listed as “complete conversion to product”.

B3: SEQ ID NO: 30: improved HHDH (halohydrin dehalogenase) polypeptide of the Sequence Listing (protein)
chain: MSTVIVTNVKHFGGMGSALRLSEAGHTVACHDESFKQKDELEAFAETYPQLKPMSEQEPAELIEAVTSAYGQVDVLVSNDIFAPEFQPIDKYAVEDYRGAVEALQIRPFALVNAVASQMKKRKSGHIIFITSATPFGPWKELSTYTSARAGACTLANALSKELGEYNIPVFAIGPNYLHSEDSPYFYPTEPWKTNPEHVAHVKKVTALQRLGTQKELGELVAFLASGSCDYLTGQVFWLAGGFPMIERWPGMPE
Turning to B3, the “Fold Improvement … (SEQ ID NO: 2)” value in data set [2] came to 2.8 Fold.

B4: SEQ ID NO: 6: improved HHDH (halohydrin dehalogenase) polypeptide of the Sequence Listing (protein)
chain: MSTAIVTNVKHFGGMGSALRLSETGHTVACHDESFKQKDELEAFAETYPQLKPMSEQEPAELIEAVTSAYGQVDVLVSNDIFAPEFQPIDKYAVEDYRGAVEALQIRPFALVNAVASQMKKRKSGHIIFITSATPFGPWKELSTYTSARAGACTLANALSKELGEYNIPVFAIGPNYLHSEDSPYFYPTEPWKTNPEHVAHVKKVTALQRLGTQKELGELVAFLASGSCDYLTGQVFWLAGGFPMIERWPGMPE
For the molecule B4, the “Fold Improvement … (SEQ ID NO: 2)” value in data set [2] turned out to be 1.6 Fold.

B5: SEQ ID NO: 4: improved HHDH (halohydrin dehalogenase) polypeptide of the Sequence Listing (protein)
chain: MSTAIVTNVKHFGGMGSALRLSEAGHTVACHDESFNQKDELEALPETYPQLKPMREQEPAELIEAVTSAYGQVDVLVSNDIFAPEFQPIDKYAVEDYRGAVEALQIRPFALVNAVASQMKKRKSGHIIFITSATPFGPWKELSTYTSARAGACTLANALSKELGEYNIPVFAIGPNYLHSEDSPYFYPTEPWKTNPEHVAHVKKVTALQRLGTQKELGELVAFLASGSCDYLTGQVFWLAGGFPMIERWPGMPE
B5: the “Fold Improvement … (SEQ ID NO: 2)” value in data set [2] is 1.5 Fold.

B6: SEQ ID NO: 8: improved HHDH (halohydrin dehalogenase) polypeptide of the Sequence Listing (protein)
chain: MSTAIVTNVKHFGGMGSALSLSEAGHTVTCHDESFKQKDELEAFAETYPQLKPMSEQEPAELIEAVTSAYGQVDVLVSNDIFAPEFQPIDKYAVEDYRGAVEALQIRPFALVNAVASQMKKRKSGHIIFITSATPFGPWKELSTYTSARAGACTLANALSKELGEYNIPVFAIGPNYLHSEDSPYFYPTEPWKTNPEHVAHVKKVTALQRLGTQKELGELVAFLASGSCDYLTGQVFWLAGGFPMIERWPGMPE
On to B6, for which the “Fold Improvement … (SEQ ID NO: 2)” value in data set [2] was found to be 1.8 Fold.

The values are drawn from patent publication US8252554B2, “Halohydrin dehalogenases and related polynucleotides” (Codexis, Inc., priority 2003, dated 2012).
